PMC6957492, “Assembly and substrate recognition of curli biogenesis system” (Nature Communications, 2020)
Positions count from the first letter of the chain named. In names and notes the source's numbering stands. Entries after “also recorded” stand apart in the source; their conditions may differ.

Columns and labels:
CsgB [1] = assay: Pulldown assay of CsgB by CsgF domains; format: binding, E. coli; settings: CsgB C-terminal MBP tag, CsgF parts N-terminal MBP tag; western blot
CsgG = assay: Pulldown assay of CsgF variants/domains with CsgG as bait; format: binding, E. coli K12; settings: CsgF variants with C-terminal MBP tag
Description: The procedure of CsgG purification was similar to that of the CsgFG complex. […] After incubation for 30 min, the mixture was loaded into a Strep-Tactin column (IBA). […] Individual CsgG and CsgF variants were purified as input by Strep-Tactin and Ni-NTA, respectively. The samples were analyzed by 15% SDS–PAGE and stained with Coomassie blue.
CsgFGBD-MBP mutant variants were purified as soluble protein by Ni-NTA. CsgG were purified as membrane protein by Strep-Tactin and substituted by amphipole A8-35. CsgFGBD-MBP mutant variants (36 μM) and CsgG nonamer (2 μM) were mixed together at 4 °C for 2 h and then incubated with equal volume of Strep-Tactin beads at 4 °C for 1 h.
Supplementary Figure 5. Interaction mode between CsgFN and CsgG. a, Interaction of CsgFN and CsgG. […] Two adjacent subunits of CsgG are shown in magenta and cyan, respectively. b, Hydrogen bonds and electrostatic interaction between CsgFN and CsgG. Hydrogen bonds are shown as red […]
aromatic residues in CsgG. d, The hydrophobic interaction between CsgFN and CsgG. e, Pulldown assay between the CsgF(C-terminal MBP tag) mutant variants and CsgG. […] Source data are provided as a Source Data file.
(1 picture or pasted object on this page, not shown here)

[2] = test system: PapD2 and CpxP passage through CsgG; settings: cited from earlier work
Excerpt: Tyr51, Asn55, and Phe56 residues of CsgG were reported to constitute three stacked concentric rings to form a pore structure in the nonameric channel, which was essential to limit the passage of the folded proteins[22] (Fig. 2a).

CsgB [3] = settings: cited from earlier work
Excerpt: CsgFC was flexible, and was observed as fuzzy densities on the extracellular side of the CsgFG channel (Fig. 1c and Supplementary Fig. 1d), which should be responsible for interacting with CsgB. To further clarify CsgF function, we first performed a pulldown assay using CsgG as a bait. […] Therefore, CsgF ...

CsgA = settings: CsgF and CsgB as baits (N-terminal MBP tag), CsgA C-terminal MBP tag
Description: The cells were induced with 0.5 mM IPTG for 4 h at 37 °C. […] After incubation for 20 min, the mixture was loaded to a Strep-Tactin column (IBA). The beads were washed four times with a buffer having 25 mM Tris-HCl at pH 8.0, 150 mM NaCl, and eluted in a buffer having 25 mM Tris-HCl at pH 8.0, 150 mM NaCl, and 2.5 mM desthiobiotin. […] The samples were analyzed by 15% SDS–PAGE and detected by western blotting.

[4] = target: the molecule itself; assay: cryo-EM structure; CsgFG complex co-expressed from the CsgEFG operon, purified in LDAO; single-particle cryo-EM, 3.8 Å without symmetry, 3.38 Å with C9 symmetry
[5] = target: T1, Wild-type CsgG (expressed alone) (E. coli K12, UniProt P0AEA2 16-277); assay: ITC; MicroCal ITC200, 25 °C; nonameric CsgG in amphipole A8-35 in the cell (2 or 10 μM), CsgFN-MBP (200 μM), CsgAN6 peptide (1 mM) or PeptideN (60 µM) in the syringe; 10 mM HEPES pH 7.5, 50 mM NaCl; settings: both partners purified
T1 construct: also called CsgG nonamer; nonameric CsgG
T1 sequence (looked up): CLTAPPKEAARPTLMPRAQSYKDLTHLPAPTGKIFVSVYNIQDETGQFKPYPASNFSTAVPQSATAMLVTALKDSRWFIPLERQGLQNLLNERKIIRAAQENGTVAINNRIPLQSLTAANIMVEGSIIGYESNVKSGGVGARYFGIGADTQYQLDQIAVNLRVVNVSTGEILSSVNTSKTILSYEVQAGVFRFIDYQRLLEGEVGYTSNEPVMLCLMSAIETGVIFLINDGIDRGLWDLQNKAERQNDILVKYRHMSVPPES

[6] = test system: curli cell association in E. coli K-12 strain BW25113; assay: Congo red cell-association assay; format: cell-based, E. coli K-12 BW25113; settings: CsgF variants, scraped YESCA plates after 48 h
Description: (§1) The E. coli K-12 strain BW25113 wild type (WT) and mutants were cultured overnight in LB at 37 °C. To induce curli production, 5 μl sample was spotted on YESCA plates (10 g/L casamino acids, 1 g/L yeast extract, and 20 g/L Bacto agar) supplemented with 100 μg/ml ampicillin and 90 μg/ml Congo red. The plates were incubated at 26 °C for 48 h. […] For overexpression assay in the ΔCsgE mutant strain, 3 μM IPTG was also supplemented in the YESCA plates.
For the Congo red cell-association assay, after growing in YESCA plates for 48 h, the cells were scraped from the plates and the scraped plates were observed. The remaining plates with curli cell association appeared white, while the remaining plates without curli cell association appeared red.

[7] = test system: curli production in E. coli K-12 strain BW25113; assay: Congo red secretion assay of CsgF, CsgA or CsgG variants; format: cell-based, E. coli K-12 BW25113
Description: as §1

[8] = target: T2, Wild-type CsgG (expressed alone) (E. coli K12, UniProt P0AEA2 16-277); assay: ITC
T2 chain: T1 sequence (looked up)

Molecule: CsgFN: N-terminal domain of CsgF (CsgFN, residues 1–36)
- pulldown of CsgB (CsgB [1]): could not pulldown CsgB
- CsgF-CsgG interaction in pulldown (CsgG): CsgG can pulldown both the full-length CsgF and CsgFN

Molecule: CsgF: soluble accessory factor of the curli secretion system
- leakage of PapD2 and CpxP in the presence of CsgF [2]: considerably reduced leakage
- binding to CsgB (CsgB [3]): can also bind to CsgB
- pulldown of CsgB (CsgB [1]): full-length CsgF and CsgFC could
- CsgF-CsgG interaction in pulldown (CsgG): CsgG can pulldown both the full-length CsgF and CsgFN
- interaction with CsgA in pulldown (CsgA): did not directly interact with CsgA

B1: CsgG (from the CsgEFG operon construct with C-terminal strep-tag II) (natural protein, E. coli K12, UniProt P0AEA2 16-277, looked up)
chain: T1 sequence (looked up)
notes: also called CsgG channel; CsgG subcomplex; source: E. coli BL21 (DE3), co-expressed from the CsgEFG operon; membrane fraction solubilised in DDM/LDAO, purified (Strep-Tactin, SEC); not shown: strep-tag II, C-terminal, kept
- stoichiometry N [4]: 9 subunits

B2: CsgFC: CsgF C-terminal domain (residues 37–119) (protein)
chain: YNDDFGIETPSALDNFTQAIQSQILGGLLSNINTGKPGRMVTNDYIVDIANRDGQLQLNVTDRKTGQTSTIQVSGLQNNSTDF
modifications: left off: MBP, C-terminal, kept | His tag (from the Ni-NTA purification of the input), end not stated, state not stated
- pulldown of CsgB (CsgB [1]): full-length CsgF and CsgFC could
- CsgF-CsgG interaction in pulldown (CsgG): unlikely to interact with CsgG

B3: CsgAN6 peptide (peptide)
peptide: GVVPQY
- Kd [5]: 23.8 µM

B4: CsgF (from the CsgEFG operon) (natural protein, E. coli K12, UniProt P0AE98 20-138, looked up)
chain: GTMTFQFRNPNFGGNPNNGAFLLNSAQAQNSYKDPSYNDDFGIETPSALDNFTQAIQSQILGGLLSNINTGKPGRMVTNDYIVDIANRDGQLQLNVTDRKTGQTSTIQVSGLQNNSTDF
notes: also called CsgFN (residues 1-36) and CsgFC (residues 37-119) are its domains; source: E. coli BL21 (DE3), co-expressed from the CsgEFG operon, co-purified with CsgG (Strep-Tactin, SEC)
- stoichiometry N [4]: 9 subunits

B5: L22D (protein)
chain: B4 chain with L22D
modifications: left off: MBP, end not stated, kept | His tag (from the Ni-NTA purification), end not stated, state not stated
- CsgF-CsgG interaction in pulldown (CsgG): showed reduced interaction between CsgF and CsgG

B6: L23D (protein)
chain: B4 chain with L23D
modifications: left off: MBP, end not stated, kept | His tag (from the Ni-NTA purification), end not stated, state not stated
- CsgF-CsgG interaction in pulldown (CsgG): showed reduced interaction between CsgF and CsgG

B7: F12D (protein)
chain: B4 chain with F12D
modifications: left off: MBP, end not stated, kept | His tag (from the Ni-NTA purification), end not stated, state not stated
- Congo red cell-association phenotype [6]: nearly eliminated
- CsgF-CsgG interaction in pulldown (CsgG): abolished the interaction between CsgF and CsgG

B8: F7D (protein)
chain: B4 chain with F7D
modifications: left off: MBP, end not stated, kept | His tag (from the Ni-NTA purification), end not stated, state not stated
- Congo red cell-association phenotype [6]: nearly eliminated
- CsgF-CsgG interaction in pulldown (CsgG): abolished the interaction between CsgF and CsgG; also recorded: didn’t see binding

B9: N9A (protein)
chain: B4 chain with N9A
modifications: left off: MBP, end not stated, kept | His tag (from the Ni-NTA purification), end not stated, state not stated
- CsgF-CsgG interaction in pulldown (CsgG): showed reduced interaction between CsgF and CsgG

B10: F21D (protein)
chain: B4 chain with F21D
modifications: left off: MBP, end not stated, kept | His tag (from the Ni-NTA purification), end not stated, state not stated
- CsgF-CsgG interaction in pulldown (CsgG): did not show any detectable influence on CsgF-CsgG interaction

B11: R8A (protein)
chain: B4 chain with R8A
modifications: left off: MBP, end not stated, kept | His tag (from the Ni-NTA purification), end not stated, state not stated
- CsgF-CsgG interaction in pulldown (CsgG): showed reduced interaction between CsgF and CsgG

B12: CsgFN17R: N17R-mutated CsgF (protein, UniProt P0AE98 20-138, looked up, variant N17R)
Curli production …: B4 chain with N17R
- Congo red secretion phenotype (curli formation) ([7]; CsgF variants in ∆CsgF strain, YESCA/Congo red plates, 26 °C, 48 h): loss of the Congo red phenotype
- Congo red secretion phenotype ([7]; N17R-mutated CsgF expressed in wild type (WT) strain): largely reduced Congo red phenotype

B13: N11A (protein)
chain: B4 chain with N11A
modifications: left off: MBP, end not stated, kept | His tag (from the Ni-NTA purification), end not stated, state not stated
- CsgF-CsgG interaction in pulldown (CsgG): did not show any detectable influence on CsgF-CsgG interaction

B14: F5D (protein)
chain: B4 chain with F5D
modifications: left off: MBP, end not stated, kept | His tag (from the Ni-NTA purification), end not stated, state not stated
- Congo red cell-association phenotype [6]: nearly eliminated
- CsgF-CsgG interaction in pulldown (CsgG): abolished the interaction between CsgF and CsgG

B15: PeptideN_(N17R) (peptide)
peptide: GTMTFQFRNPNFGGNPR
notes: source: synthetic peptide
- binding result [5]: binds
- Kd [8]: 0.0141 µM
